From patent US20170313754A1 (PROTAGONIST THERAPEUTICS, published 2017)
Numbered stars: 1 amine (or outer) side, 2 acyl side, 3 side chain; on linkers, the order of the positions; unused ones are H or OH. Bridge positions count the residues as written; N and C are the ends. Square brackets hold non-standard residues; d marks the D form. Ends that are not written are not given here. * marks the point of attachment. Ida = iminodiacetic acid, O=C(CN(CC(=O)[*:3])[*:1])[*:2]; Dip = N[C@H](C(=O)O)C(c1ccccc1)c1ccccc1; β3hF = N[C@H](CC(=O)O)Cc1ccccc1; pGlu = O=C1CC[C@@H](C(=O)O)N1; β3hP = O=C(O)C[C@@H]1CCCN1; Isovaleryl = CC(C)CC(=O)*

T1: human ferroportin (SLC40A1) fused in frame with GFP, stably expressed in HEK293 cells (human, UniProt Q9NP59 1-571)
T1 sequence (looked up): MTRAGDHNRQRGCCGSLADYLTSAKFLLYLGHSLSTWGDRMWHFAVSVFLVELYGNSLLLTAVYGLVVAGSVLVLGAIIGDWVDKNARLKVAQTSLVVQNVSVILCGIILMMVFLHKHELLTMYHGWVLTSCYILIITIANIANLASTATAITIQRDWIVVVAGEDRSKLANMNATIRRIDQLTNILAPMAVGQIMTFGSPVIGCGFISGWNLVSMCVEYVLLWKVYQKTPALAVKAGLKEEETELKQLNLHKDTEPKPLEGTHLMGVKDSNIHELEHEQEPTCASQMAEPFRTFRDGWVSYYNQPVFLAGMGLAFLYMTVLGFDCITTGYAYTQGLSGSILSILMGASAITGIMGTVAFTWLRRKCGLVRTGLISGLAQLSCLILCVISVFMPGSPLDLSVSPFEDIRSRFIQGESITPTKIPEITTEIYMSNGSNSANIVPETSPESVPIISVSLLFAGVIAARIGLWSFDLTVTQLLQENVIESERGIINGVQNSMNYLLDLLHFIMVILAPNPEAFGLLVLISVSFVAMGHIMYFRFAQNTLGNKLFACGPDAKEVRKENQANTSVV


target: T1, human ferroportin (SLC40A1) fused in …; experiment: cell-based or functional assay

| Binder | Potency EC50 (nM), ferroportin-GFP internalization/degradation [nM] | Potency: percent at the stated concentration, ferroportin-GFP internalization/degradation |
| --- | --- | --- |
| Isovaleryl-DTHFPCIIF-NH2 (SMILES CC[C@H](C)[C@H](NC(=O)[C@H](CS)NC(=O)[C@@H]1CCCN1C(=O)[C@H](Cc1ccccc1)NC(=O)[C@H](Cc1c[nH]cn1)NC(=O)[C@@H](NC(=O)[C@H](CC(=O)O)NC(=O)CC(C)C)[C@@H](C)O)C(=O)N[C@H](C(=O)N[C@@H](Cc1ccccc1)C(N)=O)[C@@H](C)CC) [Isovaleric acid-DTHFPCIIF-NH2] | 16 | – |
| Isovaleryl-DTHFPCIKF-NH2 (SMILES CC[C@H](C)[C@H](NC(=O)[C@H](CS)NC(=O)[C@@H]1CCCN1C(=O)[C@H](Cc1ccccc1)NC(=O)[C@H](Cc1c[nH]cn1)NC(=O)[C@@H](NC(=O)[C@H](CC(=O)O)NC(=O)CC(C)C)[C@@H](C)O)C(=O)N[C@@H](CCCCN)C(=O)N[C@@H](Cc1ccccc1)C(N)=O) [Isovaleric acid-DTHFPCIKF-NH2] | 7 | – |
| H-DTHFPCIF-NH2 [Hy-DTHFPCIF-NH2] | – | 52 % at 1 µM |
| H-DTHFPCIKFF-NH2 [Hy-DTHFPCIKFF-NH2] | – | 64 % at 1 µM |
| H-LTHFPCIIF-NH2 [Hy-LTHFPCIIF-NH2] | – | 64 % at 1 µM |
| H-ETHFPCIIF-NH2 [Hy-ETHFPCIIF-NH2] | – | 77 % at 1 µM |
| H-DTKFPCIIF-NH2 [Hy-DTKFPCIIF-NH2] | – | 60 % at 1 µM |
| H-DTHFPCIIK-NH2 [Hy-DTHFPCIIK-NH2] | – | 55 % at 1 µM |
| H-DTHFPCIIR-NH2 [Hy-DTHFPCIIR-NH2] | – | 62 % at 1 µM |
| H-DTHFPCIVF-NH2 [Hy-DTHFPCIVF-NH2] | – | 75 % at 1 µM |
| H-DTHFPCILF-NH2 [Hy-DTHFPCILF-NH2] | – | 89 % at 1 µM |
| H-DTHFPCILK-NH2 [Hy-DTHFPCILK-NH2] | – | 55 % at 1 µM |
| H-DTHFPCIEK-NH2 [Hy-DTHFPCIEK-NH2] | – | 0 % at 1 µM |
| Isovaleryl-DTHFPCIKKEPHSKECK-NH2 (disulfide 6-16 (inferred)) [Isovaleric acid-DTHFPCIKKEPHSKECK-NH2] | > 1000 | – |
| DTHFPCIKFKPHSKECK (N-terminal isovaleric acid; K(isoglu-Palm) at Lys 10; C-terminal amide) [Isovaleric acid-DTHFPCIKF-K(isoglu-Palm)-PHSKECK-NH2] | 6 | – |
| H-DTHFPCAIF-NH2 [Hy-DTHFPCAIF-NH2] | > 1000 | – |
| [Ida]TH[Dip][β3hP]CRR[β3hF]-NH2 [[IDA]-TH-[Dpa]-[bhPro]CRR-[bhPhe]-NH2] | 206 | – |
| H-DTHFPCEIF-NH2 [Hy-DTHFPCEIF-NH2] | > 1000 | – |

| Binder | Potency EC50 (nM), ferroportin-GFP internalization/degradation [nM] | Potency: percent at the stated concentration, ferroportin-GFP internalization/degradation |
| --- | --- | --- |
| H-DTHFPCFIF-NH2 [Hy-DTHFPCFIF-NH2] | 1190 | – |
| H-DTHFPCQIF-NH2 [Hy-DTHFPCQIF-NH2] | > 1000 | – |
| H-DTHFPCRIF-NH2 [Hy-DTHFPCRIF-NH2, listing 1 of 2 here] | > 1000 | – |
| [pGlu]THFPCRKF-NH2 (SMILES C[C@@H](O)[C@H](NC(=O)[C@@H]1CCC(=O)N1)C(=O)N[C@@H](Cc1c[nH]cn1)C(=O)N[C@@H](Cc1ccccc1)C(=O)N1CCC[C@H]1C(=O)N[C@@H](CS)C(=O)N[C@@H](CCCNC(=N)N)C(=O)N[C@@H](CCCCN)C(=O)N[C@@H](Cc1ccccc1)C(N)=O) [Hy-[pGlu]-THFPCRKF-NH2] | > 1000 | – |
| H-DTHFPCLIF-NH2 [Hy-DTHFPCLIF-NH2] | > 10000 | – |
| H-DTHFPCVIF-NH2 [Hy-DTHFPCVIF-NH2] | – | 81 % at 10 uM |
| H-DTHFPCRIF-NH2 [Hy-DTHFPCRIF-NH2, listing 2 of 2 here] | – | 31 % at 10 uM |
| H-DTHFPCKIF-NH2 [Hy-DTHFPCKIF-NH2] | – | 9 % at 10 uM |
| H-DTHFPCLF-NH2 [Hy-DTHFPCLF-NH2] | – | 39 % at 1 uM |
| H-DTHFPCRF-NH2 [Hy-DTHFPCRF-NH2] | – | 31 % at 10 uM |
| H-DTHFPRRFGPRSKGWVC-NH2 [Hy-DTHFPRRFGPRSKGWVC-NH2] | > 1000 | – |
| [Ida]THF[β3hP]CRR[β3hF]GPRSKGWVC-NH2 (disulfide 6-18 (inferred)) [[IDA]-THF-[bhPro]-CRR-[bhPhe]GPRSKGWVC-NH2] | > 1000 | – |
| H-DTHFPCIFGPRSKGWVC-NH2 (disulfide 6-17 (inferred)) [Hy-DTHFPCIFGPRSKGWVC-NH2] | > 1000 | – |
| H-DTHFPCRIFGPRSRGWVCK-NH2 (disulfide 6-18 (inferred)) [Hy-DTHFPCRIFGPRSRGWVCK-NH2] | > 1000 | – |
| Isovaleryl-DTHFPCKIFGPRSKGWVCK-NH2 (disulfide 6-18 (inferred)) [Isovaleric acid-DTHFPCKIFGPRSKGWVCK-NH2] | 86 | – |
| Isovaleryl-DTHFPCKIFGPRSKGWECK-NH2 (disulfide 6-18 (inferred)) [Isovaleric acid-DTHFPCKIFGPRSKGWECK-NH2] | 163 | – |
| Isovaleryl-DTHFPCRRFGPRSKGWVCK-NH2 (disulfide 6-18 (inferred)) [Isovaleric acid-DTHFPCRRFGPRSKGWVCK-NH2] | > 1000 | – |
| H-DTHFPIAICI-NH2 [Hy-DTHFPIAICI-NH2] | > 10000 | – |
